{"source": "the Immune Epitope Database (IEDB)", "key": {"HLA-A*02:01 [1]": {"target": "HLA-A*02:01", "test": "IEDB peptide-MHC binding, purified MHC/direct/fluorescence; filed as Kd, often an IC50 or EC50 that approximates it; ≥ and ≤ were set here for values at or beyond the usual limits of such assays", "conditions": "source organism: Encephalitozoon cuniculi"}, "HLA-A*69:01": {"target": "HLA-A*69:01", "test": "IEDB peptide-MHC binding, purified MHC/direct/fluorescence; filed as Kd, often an IC50 or EC50 that approximates it; ≥ and ≤ were set here for values at or beyond the usual limits of such assays"}, "HLA-B*07:02": {"target": "HLA-B*07:02", "test": "IEDB peptide-MHC binding, purified MHC/direct/fluorescence; filed as Kd, often an IC50 or EC50 that approximates it; ≥ and ≤ were set here for values at or beyond the usual limits of such assays"}, "HLA-B*58:01": {"target": "HLA-B*58:01", "test": "IEDB peptide-MHC binding, purified MHC/direct/fluorescence; filed as Kd, often an IC50 or EC50 that approximates it; ≥ and ≤ were set here for values at or beyond the usual limits of such assays", "conditions": "source organism: Homo sapiens"}, "HLA-A*30:01": {"target": "HLA-A*30:01", "test": "IEDB peptide-MHC binding, purified MHC/competitive/radioactivity; filed as Kd, often an IC50 or EC50 that approximates it; ≥ and ≤ were set here for values at or beyond the usual limits of such assays"}, "HLA-A*02:01 [2]": {"target": "HLA-A*02:01", "test": "IEDB peptide-MHC binding, purified MHC/competitive/fluorescence; ≥ and ≤ were set here for values at or beyond the usual limits of such assays"}, "HLA-A*11:01": {"target": "HLA-A*11:01", "test": "IEDB peptide-MHC binding, purified MHC/direct/fluorescence; filed as Kd, often an IC50 or EC50 that approximates it; ≥ and ≤ were set here for values at or beyond the usual limits of such assays"}, "HLA-A*02:01 [3]": {"target": "HLA-A*02:01", "test": "IEDB peptide-MHC binding, purified MHC/competitive/fluorescence; filed as Kd, often an IC50 or EC50 that approximates it; ≥ and ≤ were set here for values at or beyond the usual limits of such assays"}, "HLA-A*02:02": {"target": "HLA-A*02:02", "test": "IEDB peptide-MHC binding, purified MHC/competitive/radioactivity; filed as Kd, often an IC50 or EC50 that approximates it; ≥ and ≤ were set here for values at or beyond the usual limits of such assays", "conditions": "source organism: Vaccinia virus WR"}, "HLA-A*02:06": {"target": "HLA-A*02:06", "test": "IEDB peptide-MHC binding, purified MHC/competitive/radioactivity; filed as Kd, often an IC50 or EC50 that approximates it; ≥ and ≤ were set here for values at or beyond the usual limits of such assays", "conditions": "source organism: Vaccinia virus WR"}, "HLA-A*02:03": {"target": "HLA-A*02:03", "test": "IEDB peptide-MHC binding, purified MHC/competitive/radioactivity; filed as Kd, often an IC50 or EC50 that approximates it; ≥ and ≤ were set here for values at or beyond the usual limits of such assays", "conditions": "source organism: Vaccinia virus WR"}, "HLA-A*30:02": {"target": "HLA-A*30:02", "test": "IEDB peptide-MHC binding, purified MHC/competitive/radioactivity; filed as Kd, often an IC50 or EC50 that approximates it; ≥ and ≤ were set here for values at or beyond the usual limits of such assays", "conditions": "source organism: Dengue virus 2 Jamaica/1409/1983"}, "HLA-A*01:01": {"target": "HLA-A*01:01", "test": "IEDB peptide-MHC binding, purified MHC/direct/fluorescence; filed as Kd, often an IC50 or EC50 that approximates it; ≥ and ≤ were set here for values at or beyond the usual limits of such assays", "conditions": "source organism: SARS-CoV1"}, "HLA-B*40:01": {"target": "HLA-B*40:01", "test": "IEDB peptide-MHC binding, purified MHC/direct/fluorescence; filed as Kd, often an IC50 or EC50 that approximates it; ≥ and ≤ were set here for values at or beyond the usual limits of such assays", "conditions": "source organism: SARS-CoV1"}, "HLA-B*15:01": {"target": "HLA-B*15:01", "test": "IEDB peptide-MHC binding, purified MHC/direct/fluorescence; filed as Kd, often an IC50 or EC50 that approximates it; ≥ and ≤ were set here for values at or beyond the usual limits of such assays", "conditions": "source organism: SARS-CoV1"}, "HLA-A*03:01": {"target": "HLA-A*03:01", "test": "IEDB peptide-MHC binding, purified MHC/direct/fluorescence; filed as Kd, often an IC50 or EC50 that approximates it; ≥ and ≤ were set here for values at or beyond the usual limits of such assays", "conditions": "source organism: SARS-CoV1"}, "[4]": {"conditions": "source organism: Vaccinia virus WR"}, "[5]": {"conditions": "source organism: Vaccinia virus Copenhagen"}, "[6]": {"conditions": "source organism: Salmonella enterica subsp. enterica serovar Typhi"}, "[7]": {"conditions": "source organism: Sudan ebolavirus"}}}
{"sequence": "YLWFKRHVY", "values": [{"measurement": "Kd", "setting": "HLA-A*02:01 [1]", "result": 4010, "unit": "nM"}, {"measurement": "Kd", "setting": "HLA-A*69:01; source organism: Encephalitozoon cuniculi", "result": 3240, "unit": "nM"}]}
{"sequence": "DPSGAYFAW", "values": [{"measurement": "Kd", "setting": "HLA-B*07:02; source organism: Homo sapiens", "result": 17600, "unit": "nM"}, {"measurement": "Kd", "setting": "HLA-B*58:01", "result": 1570, "unit": "nM"}]}
{"sequence": "MRRERAAYV", "values": [{"measurement": "Kd", "setting": "HLA-A*30:01; [4]", "result": 21.8, "unit": "nM"}]}
{"sequence": "LRFLTIPPTA", "values": [{"measurement": "Kd", "setting": "HLA-A*30:01; source organism: Dengue virus 2 Jamaica/1409/1983", "result": 951, "unit": "nM"}]}
{"sequence": "TLNASQYAN", "values": [{"measurement": "IC50", "setting": "HLA-A*02:01 [2]; [5]", "result": "≥ 143000", "unit": "nM"}]}
{"sequence": "AAGLPAIFV", "values": [{"measurement": "Kd", "setting": "HLA-A*11:01; [6]", "result": 3860, "unit": "nM"}, {"measurement": "Kd", "setting": "HLA-A*69:01; [6]", "result": 1070, "unit": "nM"}]}
{"sequence": "SLYNLVKSSV", "values": [{"measurement": "Kd", "setting": "HLA-A*02:01 [3]; source organism: Variola virus", "result": 3.2, "unit": "nM"}]}
{"sequence": "NAAGIAWIP", "values": [{"measurement": "IC50", "setting": "HLA-A*02:01 [2]; [7]", "result": 64500, "unit": "nM"}]}
{"sequence": "KFRPLMIFM", "values": [{"measurement": "Kd", "setting": "HLA-A*30:01; [4]", "result": 1.8, "unit": "nM"}]}
{"sequence": "LLPDSDVFV", "values": [{"measurement": "Kd", "setting": "HLA-A*02:01 [3]; [4]", "result": 1.1, "unit": "nM"}]}
{"sequence": "GSRKSSSIL", "values": [{"measurement": "Kd", "setting": "HLA-A*30:01; [5]", "result": 1.58, "unit": "nM"}]}
{"sequence": "RALKAYFTA", "values": [{"measurement": "Kd", "setting": "HLA-A*30:01; [4]", "result": 66.1, "unit": "nM"}, {"measurement": "Kd", "setting": "HLA-A*02:02", "result": 2350, "unit": "nM"}, {"measurement": "Kd", "setting": "HLA-A*02:06", "result": 13.7, "unit": "nM"}, {"measurement": "Kd", "setting": "HLA-A*02:03", "result": 204, "unit": "nM"}]}
{"sequence": "FLTCTDRSV", "values": [{"measurement": "Kd", "setting": "HLA-A*02:01 [3]; source organism: Human alphaherpesvirus 1 strain 17", "result": 83, "unit": "nM"}]}
{"sequence": "IDFLLRRWG", "values": [{"measurement": "IC50", "setting": "HLA-A*02:01 [2]; [7]", "result": 26200, "unit": "nM"}]}
{"sequence": "GYSQIGAGVY", "values": [{"measurement": "Kd", "setting": "HLA-A*30:02", "result": 127, "unit": "nM"}]}
{"sequence": "SLLRNDVPMA", "values": [{"measurement": "Kd", "setting": "HLA-A*30:01; source organism: Dengue virus 3 Martinique/1243/1999", "result": 2480, "unit": "nM"}]}
{"sequence": "TLIQYRQQL", "values": [{"measurement": "Kd", "setting": "HLA-A*02:02", "result": 128, "unit": "nM"}, {"measurement": "Kd", "setting": "HLA-A*02:06", "result": 1880, "unit": "nM"}, {"measurement": "Kd", "setting": "HLA-A*02:03", "result": 410, "unit": "nM"}]}
{"sequence": "KVKKRYPEF", "values": [{"measurement": "Kd", "setting": "HLA-A*30:01; [4]", "result": 103, "unit": "nM"}]}
{"sequence": "NIFMTLVPV", "values": [{"measurement": "Kd", "setting": "HLA-A*02:02", "result": 86.2, "unit": "nM"}, {"measurement": "Kd", "setting": "HLA-A*02:06", "result": 227, "unit": "nM"}, {"measurement": "Kd", "setting": "HLA-A*02:03", "result": 6.38, "unit": "nM"}]}
{"sequence": "LTSVDIETA", "values": [{"measurement": "Kd", "setting": "HLA-A*02:02", "result": 4920, "unit": "nM"}, {"measurement": "Kd", "setting": "HLA-A*02:06", "result": 311, "unit": "nM"}, {"measurement": "Kd", "setting": "HLA-A*02:03", "result": 11500, "unit": "nM"}]}
{"sequence": "FLTGTFVTA", "values": [{"measurement": "Kd", "setting": "HLA-A*02:02", "result": 4.69, "unit": "nM"}, {"measurement": "Kd", "setting": "HLA-A*02:06", "result": 2.05, "unit": "nM"}, {"measurement": "Kd", "setting": "HLA-A*02:03", "result": 0.712, "unit": "nM"}]}
{"sequence": "TIILNKIVQL", "values": [{"measurement": "Kd", "setting": "HLA-A*02:02", "result": 1760, "unit": "nM"}, {"measurement": "Kd", "setting": "HLA-A*02:06", "result": 30.4, "unit": "nM"}, {"measurement": "Kd", "setting": "HLA-A*02:03", "result": "≥ 49300", "unit": "nM"}]}
{"sequence": "VQTVRTQVY", "values": [{"measurement": "Kd", "setting": "HLA-A*11:01; source organism: SARS-CoV1", "result": "≥ 44700", "unit": "nM"}, {"measurement": "Kd", "setting": "HLA-A*01:01", "result": "≥ 24700", "unit": "nM"}, {"measurement": "Kd", "setting": "HLA-B*40:01", "result": "≥ 168000", "unit": "nM"}, {"measurement": "Kd", "setting": "HLA-B*07:02; source organism: SARS-CoV1", "result": 16700, "unit": "nM"}, {"measurement": "Kd", "setting": "HLA-B*15:01", "result": 144, "unit": "nM"}, {"measurement": "Kd", "setting": "HLA-A*03:01", "result": 6620, "unit": "nM"}]}
